Patent US20260274985A1 (MYTHIC THERAPEUTICS, published 2026)
Changes are numbered by the printed parent chain.

Columns and labels:
[1] = target: T1, TROP2 on TROP2-positive NCI-H1975 cells (human, UniProt P09758 27-323); assay: binding to NCI-H1975 cells at pH 6.4, maximal MFI
T1 construct: Endogenous TROP2 of the human NCI-H1975 cell line; also called TACSTD2
T1 sequence: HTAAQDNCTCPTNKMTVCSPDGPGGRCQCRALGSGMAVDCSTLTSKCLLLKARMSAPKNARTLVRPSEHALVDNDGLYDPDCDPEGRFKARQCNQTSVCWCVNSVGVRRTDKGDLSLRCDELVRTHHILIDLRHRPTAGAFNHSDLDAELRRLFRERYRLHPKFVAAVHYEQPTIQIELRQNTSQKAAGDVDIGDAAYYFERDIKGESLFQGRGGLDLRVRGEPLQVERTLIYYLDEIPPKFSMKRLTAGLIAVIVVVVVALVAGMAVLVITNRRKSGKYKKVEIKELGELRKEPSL

[2] = target: T1, TROP2 on TROP2-positive NCI-H1975 cells; assay: cell-based or functional assay
[3] = target: T2, Human TROP2 Protein, His Tag (Acro Biosystems) (human, UniProt P09758 27-274); assay: BLI (Octet)
T2 construct: not shown: His tag
T2 sequence (looked up): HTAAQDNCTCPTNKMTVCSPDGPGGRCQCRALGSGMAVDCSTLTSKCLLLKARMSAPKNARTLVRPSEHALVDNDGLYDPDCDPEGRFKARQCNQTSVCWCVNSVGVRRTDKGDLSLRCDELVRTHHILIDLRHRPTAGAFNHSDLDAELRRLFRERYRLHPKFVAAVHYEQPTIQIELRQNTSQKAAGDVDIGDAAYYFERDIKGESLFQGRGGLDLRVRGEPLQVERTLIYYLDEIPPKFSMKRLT

[4] = target: T3, TROP2 on TROP2-positive NCI-H1975 cells (human, UniProt P09758 27-323); assay: binding to TROP2-positive NCI-H1975 cells at pH 7.4
T3 construct: whole, on cells
T3 sequence (looked up): T1 sequence

[5] = target: T2, Human TROP2 Protein, His Tag (Acro …); assay: Octet (BLI); antigen and pH not given
[6] = target: T3, TROP2 on TROP2-positive NCI-H1975 cells; assay: binding to TROP2-positive NCI-H1975 cells at pH 6.7
[7] = target: T4, Human TROP2 Protein, His Tag (Acro Biosystems) (human, UniProt P09758 27-274); assay: BLI (Octet) [1/2]
T4 construct: also called TACSTD2; not shown: His tag
T4 sequence (looked up): T2 sequence (looked up)

[8] = target: T1, TROP2 on TROP2-positive NCI-H1975 cells; assay: cell-based or functional assay; remark: listed apart in the source

B1: MYT11704 (antibody, human IgG1, V domains shown)
VH: QVQLQESGPGLVKPSETLSLTCTVSGGSISSYGVHWIRQPPGKGLEWIGVIWTSGVTDYNSALMGRVTISVDTSKNQFSLKLSSVTAADTAVYYCARDGDYDRYTMDYWGQGTLVTVSS
VL: DIVMTQSPDSLAVSLGERATINCRASKSVSTSGYSYMHWYQQKPGQPPKLLIYLASNLESGVPDRFSGSGSGTDFTLTISSLQAEDVAVYYCQHSRELPYTFGQGTKLEIK
notes: Human IgG1 heavy chain constant domain and Kappa light chain constant domain; also called hu7E6SVG WT; hu7E6SVG
- Max MFI (@ pH 6.4)-H1975 [1]: 31500 MFI
- Cytotox Fold over datopotamab (FOD) [2]: 1.22 fold over datopotamab

B2: MYT12459 (antibody, human IgG1, V domains shown)
VH: B1 VH
VL: B1 VL with E59H, Q93H, E97H
notes: Human IgG1 heavy chain constant domain and Kappa light chain constant domain; also called hu7E6SVG pH variant
- Max MFI (@ pH 6.4)-H1975 [1]: 18700 MFI
- Cytotox Fold over datopotamab (FOD) [2]: 1.35 fold over datopotamab

B3: MYT13304 (antibody, V domains shown)
VH: B1 VH with R103H
VL: B1 VL with T101H
notes: Full-length IgG from Expi293 supernatant; also called hu7E6SVG heavy chain and light chain pairing variant
- binding result [3]: binds

B4: MYT13280 (antibody, V domains shown)
VH: B1 VH with M106H
VL: B1 VL with E59H
notes: as for B3
- binding result [3]: binds

B5: MYT11614 (antibody, human IgG1, V domains shown)
VH: QVQLQQSGSELKKPGASVKVSCKASGYTFTNYGMNWVKQAPGQGLKWMGWINTYTGEPTYTDDFKGRFAFSLDTSVSTAYLQISSLKADDTAVYFCARGGFGSSYWYFDVWGQGSLVTVSS
VL: DIQLTQSPSSLSASVGDRVSITCKASQDVHIAVAWYQQKPGKAPKLLIYSASYRYTGVPDRFSGSGSGTDFTLTISSLQPEDFAVYYCQQHYITPLTFGAGTKVEIK
notes: Human IgG1 heavy chain constant domain and Kappa light chain constant domain; also called Sacituzumab LC variant
- Max MFI (@ pH 6.4)-H1975 [1]: 19400 MFI
- Cytotox Fold over datopotamab (FOD) [2]: 1.35 fold over datopotamab

B6: MYT13261 (antibody, V domains shown)
VH: QVQLVQSGAEVKKPGASVKVSCKASGYTFTTAGMQWVRQAPGQGLEWMGWINTHSGVPKYAEDFKGRVTISADTSTSTAYLQLSSLKSEDTAVYYCAHSGFGSSYWYFDVWGQGTLVTVSS
VL: B5 VL with L4M, S20T, H30S, I31T, S52H, D60S, A100Q, V104L
notes: Full-length IgG from Expi293 supernatant; also called datopotamab heavy chain and light chain pairing variant
- binding result [3]: binds

B7: MYT13271 (antibody, V domains shown)
VH: B6 VH with H98R, S104H
VL: B5 VL with L4M, S20T, H30S, I31T, D60S, Q90H, A100Q, V104L
notes: as for B6
- binding result [3]: binds

B8: MYT13427 (antibody, human IgG1, V domains shown)
VH: B5 VH with F64H
VL: B5 VL with A51H, I93H
notes: IgG; also called Sacituzumab HC-LC pairing variant
- IC50 [4]: 1 nM
- Kd [5]: 2.12 nM
- Octet response at 33.33 nM (Y-Axis) nm [5]: 0.134 nm
- IC50 [6]: 4.39 nM

B9: MYT13258 (antibody, V domains shown)
VH: B6 VH with H98R, F101H
VL: B5 VL with L4M, S20T, V29H, H30S, I31T, D60S, A100Q, V104L
notes: as for B6
- binding result [3]: binds

B10: MYT13397 (antibody, V domains shown)
VH: B5 VH with G66H
VL: B5 VL with H30S, V33H, Y53H
notes: Sacituzumab HC-LC pairing variant
- binding result [7]: binds

B11: MYT13259 (antibody, V domains shown)
VH: B6 VH with H98R, S104H
VL: B5 VL with L4M, S20T, V29H, H30S, I31T, D60S, A100Q, V104L
notes: as for B6
- binding result [3]: binds

B12: MYT13394 (antibody, V domains shown)
VH: B5 VH with D63H
VL: B5 VL with H30S, V33H, Y53H
notes: as for B10
- binding result [7]: binds

B13: MYT11670 (antibody, human IgG1, V domains shown)
VH: B6 VH with H98R, S104H
VL: B5 VL with L4M, S20T, H30S, I31T, D60S, A100Q, V104L
notes: Human IgG1 heavy chain constant domain and Kappa light chain constant domain; also called Datopotamab pH variant
- Max MFI (@ pH 6.4)-H1975 [1]: 20000 MFI
- Cytotox Fold over datopotamab (FOD) [2]: 1.41 fold over datopotamab

B14: MYT13262 (antibody, V domains shown)
VH: B6 VH with H98R, F101H
VL: B5 VL with L4M, S20T, H30S, I31T, S52H, D60S, A100Q, V104L
notes: as for B6
- binding result [3]: binds

B15: MYT13269 (antibody, V domains shown)
VH: B6 VH
VL: B5 VL with L4M, S20T, H30S, I31T, D60S, Q90H, A100Q, V104L
notes: as for B6
- binding result [3]: binds

B16: MYT13425 (antibody, human IgG1, V domains shown)
VH: B5 VH with D62H
VL: B5 VL with A51H, I93H
notes: as for B8
- IC50 [4]: 0.81 nM
- Kd [5]: 3.9 nM
- Octet response at 33.33 nM (Y-Axis) nm [5]: 0.135 nm
- IC50 [6]: 2.66 nM

B17: MYT13396 (antibody, V domains shown)
VH: B5 VH with K65H
VL: B5 VL with H30S, V33H, Y53H
notes: as for B10
- binding result [7]: binds

B18: MYT13369 (antibody, human IgG1, V domains shown)
VH: B5 VH with D62H
VL: B5 VL with V33H
notes: also called sacituzumab HC-LC pairing variant
- Max MFI (@ pH 6.4)-H1975 [1]: 17100 MFI
- FOW H1975 (10 nM) [8]: 1.44 fold over parent antibody
- Cytotox Fold over datopotamab (FOD) [2]: 1.33 fold over datopotamab

B19: MYT13428 (antibody, human IgG1, V domains shown)
VH: B5 VH with K65H
VL: B5 VL with A51H, I93H
notes: as for B18
- Max MFI (@ pH 6.4)-H1975 [1]: 6720 MFI
- FOW H1975 (10 nM) [8]: 1.55 fold over parent antibody
- Cytotox Fold over datopotamab (FOD) [2]: 1.18 fold over datopotamab

B20: MYT13370 (antibody, human IgG1, V domains shown)
VH: B5 VH with D63H
VL: B5 VL with V33H
notes: also called sacituzumab HC-LC pairing variant; Sacituzumab pH variant
- Max MFI (@ pH 6.4)-H1975 [1]: 13400 MFI
- FOW H1975 (10 nM) [8]: 1.43 fold over parent antibody
- Cytotox Fold over datopotamab (FOD) [2]: 1.28 fold over datopotamab

B21: MYT13427 (antibody, human IgG1, V domains shown)
VH: B5 VH with F64H
VL: B5 VL with A51H, I93H
notes: as for B20
- Max MFI (@ pH 6.4)-H1975 [1]: 6110 MFI
- FOW H1975 (10 nM) [8]: 1.56 fold over parent antibody
- Cytotox Fold over datopotamab (FOD) [2]: 1.19 fold over datopotamab

B22: MYT13428 (antibody, human IgG1, V domains shown)
VH: B5 VH with K65H
VL: B5 VL with A51H, I93H
notes: as for B8
- IC50 [4]: 1.56 nM
- Kd [5]: 2.08 nM
- Octet response at 33.33 nM (Y-Axis) nm [5]: 0.141 nm
- IC50 [6]: 8.29 nM

B23: MYT13270 (antibody, V domains shown)
VH: B6 VH with H98R, F101H
VL: B5 VL with L4M, S20T, H30S, I31T, D60S, Q90H, A100Q, V104L
notes: as for B6
- binding result [3]: binds

B24: MYT13393 (antibody, V domains shown)
VH: B5 VH with D62H
VL: B5 VL with H30S, V33H, Y53H
notes: as for B10
- binding result [7]: binds
